Source: patent US20100227824A1 (SYMTHERA CANADA, published 2010)
Ends that are not written are not given here.

T1: MCP-2 (CCL8) (UniProt P80075 24-99)
T1 construct: Bought chemokine
T1 sequence (looked up): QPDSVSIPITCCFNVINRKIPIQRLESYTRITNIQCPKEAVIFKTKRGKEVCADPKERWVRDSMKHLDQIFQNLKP

T2: TECK (CCL25) (UniProt O15444 24-150)
T2 construct: Bought chemokine
T2 sequence (looked up): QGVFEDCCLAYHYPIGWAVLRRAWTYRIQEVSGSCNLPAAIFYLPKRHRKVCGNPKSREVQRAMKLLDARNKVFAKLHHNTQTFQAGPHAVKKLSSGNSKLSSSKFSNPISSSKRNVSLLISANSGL

T3: RANTES (CCL5) (UniProt P13501 24-91)
T3 construct: Bought chemokine
T3 sequence (looked up): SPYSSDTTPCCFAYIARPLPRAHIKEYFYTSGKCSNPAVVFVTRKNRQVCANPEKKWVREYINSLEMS

T4: Lymphotactin (XCL-1) (UniProt P47992 23-114, limits assumed)
T4 construct: Bought chemokine
T4 sequence (looked up): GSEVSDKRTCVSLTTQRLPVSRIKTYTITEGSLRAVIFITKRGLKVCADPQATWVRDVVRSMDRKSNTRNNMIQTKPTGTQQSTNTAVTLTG

T5: Eotaxin 3 (CCL26) (UniProt Q9Y258 24-94)
T5 construct: Bought chemokine
T5 sequence (looked up): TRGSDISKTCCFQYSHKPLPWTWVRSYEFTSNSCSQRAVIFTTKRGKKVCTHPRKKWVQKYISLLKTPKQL

T6: Mig (CXCL9) (UniProt Q07325 23-125)
T6 construct: Bought chemokine
T6 sequence (looked up): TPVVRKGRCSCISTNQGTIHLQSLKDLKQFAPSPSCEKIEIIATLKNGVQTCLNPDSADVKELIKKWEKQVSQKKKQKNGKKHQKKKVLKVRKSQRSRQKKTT

T7: GRO-β (CXCL2) (UniProt P19875 35-107)
T7 construct: Bought chemokine
T7 sequence (looked up): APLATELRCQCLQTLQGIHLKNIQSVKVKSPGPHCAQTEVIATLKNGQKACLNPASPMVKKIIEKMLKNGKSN

T8: IP-10 (CXCL10) (UniProt P02778 22-98)
T8 construct: Bought chemokine
T8 sequence (looked up): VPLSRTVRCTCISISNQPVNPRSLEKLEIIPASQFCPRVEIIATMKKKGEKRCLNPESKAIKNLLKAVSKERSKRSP

T9: BCA-1 (CXCL13) (UniProt O43927 23-109)
T9 construct: Bought chemokine
T9 sequence (looked up): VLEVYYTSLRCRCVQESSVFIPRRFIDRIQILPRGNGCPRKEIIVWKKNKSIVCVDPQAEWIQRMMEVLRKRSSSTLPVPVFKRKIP

T10: I-TAC (CXCL11) (UniProt O14625 22-94)
T10 construct: Bought chemokine; also called I-TACK
T10 sequence (looked up): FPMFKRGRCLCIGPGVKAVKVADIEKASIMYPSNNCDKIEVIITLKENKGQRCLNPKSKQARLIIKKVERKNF

T11: Eotaxin 2 (CCL24) (UniProt O00175 27-104, limits assumed)
T11 construct: Bought chemokine
T11 sequence (looked up): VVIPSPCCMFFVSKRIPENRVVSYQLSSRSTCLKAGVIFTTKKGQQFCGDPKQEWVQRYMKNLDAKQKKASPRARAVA

T12: Exodus-2 (CCL21) (UniProt O00585 24-134)
T12 construct: Bought chemokine
T12 sequence (looked up): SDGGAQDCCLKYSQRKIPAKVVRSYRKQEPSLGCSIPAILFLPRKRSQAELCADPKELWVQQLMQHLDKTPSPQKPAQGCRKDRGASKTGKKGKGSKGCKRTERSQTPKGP

T13: I-309 (CCL1) (UniProt P22362 23-96, limits assumed)
T13 construct: Bought chemokine
T13 sequence (looked up): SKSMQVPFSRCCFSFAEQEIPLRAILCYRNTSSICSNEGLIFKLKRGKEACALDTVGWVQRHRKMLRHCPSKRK


Legend:
Test in all cases: micro-array, phage-presented peptide on printed CK
MCP-2 (CCL8) = target: T1, MCP-2 (CCL8)
Method: (§1) (1) Printing: Chemokine (CK) solution (in water) was serially diluted with Print Reagent (GenTel BioSurfaces USA) to final concentrations of 50 μg and 25 μg/ml. BSA/BSA-Biotin control solutions (in water) were diluted with Print Reagent to 100 μg/ml. Amplified stock of M13 phage control (M13KEgIII Cloning Vector, New England Biolabs, Cat.No.E8101S) was stored in Tris Buffered Saline (TBS; pH7.5, 4° C.) and diluted with Print Reagent to the working titre (10^8 pfu/μl). An automated spotting robot (16 pin print tool, 0.4mm head; BioRobotics, UK) was used to print the CK/BSA control/M13 control, 5 repeats per sample (CK 25 μg/ml and 50 μg/ml; BSA 100 μg/ml; M13 20 μl), on PATH Protein Microarray Slides (GenTel, Prod.No.2-1005/-1025) at […], and 50-70% relative humidity. Printed micro-array slides were stored at Room Temperature (RT) or 4° C. for at least 24 h before use.
(§2) (2) Blocking: Block Buffer (500 μl/partition; PATHblock, GenTel, Prod.No.2-1014) was applied to the slide for 1 hour at room temp (RT). After removal of Block Buffer, the slide was air dried for 25 minutes;
(§3) (11) Analysis: Quantitative analysis of micro-array was performed by the SpotReader program of Niles Scientific (USA) and presented as Relative Fluorescence (RF) as a function of CK concentration. Micro-array readout (Cy3 fluorescence) was quantified to determine the relative binding affinities of a CBP for the CKs and by inference, the specificity of the CBP for binding to a CK.

TECK (CCL25) = target: T2, TECK (CCL25)
Method: as §1, §2, §3

Eotaxin (CCL11) = target: T14, Eotaxin (CCL11) (UniProt P51671 24-97)
T14 construct: Bought chemokine
T14 sequence (P51671 24-97 limits assumed): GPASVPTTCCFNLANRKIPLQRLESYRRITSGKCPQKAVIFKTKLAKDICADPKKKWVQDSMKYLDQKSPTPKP
Method: as §1, §2, §3

MCP-1 (CCL2) = target: T15, MCP-1 (CCL2) (UniProt P13500 24-99)
T15 construct: Bought chemokine
T15 sequence (P13500 24-99 limits assumed): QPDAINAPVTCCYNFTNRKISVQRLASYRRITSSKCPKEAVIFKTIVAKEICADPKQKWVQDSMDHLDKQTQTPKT
Method: as §1, §2, §3

MCP-4 (CCL13) = target: T16, MCP-4 (CCL13) (UniProt Q99616 24-98)
T16 construct: Bought chemokine
T16 sequence (Q99616 24-98 limits assumed): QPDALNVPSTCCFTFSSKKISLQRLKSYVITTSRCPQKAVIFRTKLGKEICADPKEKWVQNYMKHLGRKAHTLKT
Method: as §1, §2, §3

RANTES (CCL5) = target: T3, RANTES (CCL5)
Method: as §1, §2, §3

Lymphotactin (XCL-1) = target: T4, Lymphotactin (XCL-1)
Method: as §1, §2, §3

Eotaxin 3 (CCL26) = target: T5, Eotaxin 3 (CCL26)
Method: as §1, §2, §3

Mig (CXCL9) = target: T6, Mig (CXCL9)
Method: as §1, §2, §3

GRO-β (CXCL2) = target: T7, GRO-β (CXCL2)
Method: as §1, §2, §3

SDF-1β (CXCL12) = target: T17, SDF-1β (CXCL12) (UniProt P48061 22-93)
T17 construct: Beta isoform of CXCL12; also called SDFβ
T17 sequence (P48061 22-93 limits assumed): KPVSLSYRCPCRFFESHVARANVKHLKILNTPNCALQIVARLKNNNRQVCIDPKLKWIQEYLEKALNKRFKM
Method: as §1, §2, §3

IP-10 (CXCL10) = target: T8, IP-10 (CXCL10)
Method: as §1, §2, §3

BCA-1 (CXCL13) = target: T9, BCA-1 (CXCL13)
Method: as §1, §2, §3

I-TAC (CXCL11) = target: T10, I-TAC (CXCL11)
Method: as §1, §2, §3

Eotaxin 2 (CCL24) = target: T11, Eotaxin 2 (CCL24)
Method: as §1, §2, §3

SDF-1α (CXCL12) = target: T18, SDF-1α (CXCL12) (UniProt P48061-2 22-89)
T18 construct: Alpha isoform of CXCL12; also called SDFα
T18 sequence (P48061 22-89 limits assumed): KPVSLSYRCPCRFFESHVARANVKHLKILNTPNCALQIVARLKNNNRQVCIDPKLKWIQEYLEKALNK
Method: as §1, §2, §3

Exodus-2 (CCL21) = target: T12, Exodus-2 (CCL21)
Method: as §1, §2, §3

I-309 (CCL1) = target: T13, I-309 (CCL1)
Method: as §1, §2, §3

| Binder | Relative Fluorescence Units (RFU) (MCP-2 (CCL8)) | binding result (TECK (CCL25)) | binding result (Eotaxin (CCL11)) | Relative Fluorescence Units (RFU) (MCP-1 (CCL2)) | Relative Fluorescence Units (RFU) (MCP-4 (CCL13)) | binding result (RANTES (CCL5)) | binding result (Lymphotactin (XCL-1)) | binding result (Eotaxin 3 (CCL26)) | binding result (Mig (CXCL9)) | binding result (GRO-β (CXCL2)) | binding result (IP-10 (CXCL10)) | binding result (BCA-1 (CXCL13)) | binding result (I-TAC (CXCL11)) | binding result (Exodus-2 (CCL21)) | further results |
| --- | --- | --- | --- | --- | --- | --- | --- | --- | --- | --- | --- | --- | --- | --- | --- |
| TTFFDYDYG [Phage-Presented Peptide 11 (Ph-p11)] | > 600 RFU | binds | binds | > 600 RFU | > 600 RFU | binds | binds | binds | binds | binds | – | – | – | – | – |
| WVFGAAACK [Phage-Presented Peptide 8.6 (Ph-p8.6)] | > 15000 RFU | binds | binds | > 15000 RFU | > 15000 RFU | – | binds | binds | binds | – | binds | binds | binds | binds | binding result (SDF-1β (CXCL12)): binds; binding result (Eotaxin 2 (CCL24)): binds; binding result (SDF-1α (CXCL12)): binds; binding result (I-309 (CCL1)): binds |
| TKCQKE [Phage-Presented Peptide 20 (Ph-p20)] | > 15000 RFU | binds | binds | > 15000 RFU | > 15000 RFU | binds | binds | binds | binds | binds | binds | binds | – | binds | – |
| GNAMCK [Phage-Presented Peptide 8.1 (Ph-p8.1)] | – | – | – | – | – | – | – | – | – | – | – | – | – | – | Relative Fluorescence Units (RFU) (TECK (CCL25)): > 15000 RFU; Relative Fluorescence Units (RFU) (BCA-1 (CXCL13)): > 15000 RFU; Relative Fluorescence Units (RFU) (Lymphotactin (XCL-1)): > 15000 RFU; Relative Fluorescence Units (RFU) (Eotaxin 3 (CCL26)): > 15000 RFU |
| HYTCSSHFP (also: displayed on M13 phage, fusion not given here) [Phage-Presented Peptide 17 (Ph-p17)] | > 600 RFU | binds | binds | – | – | – | binds | binds | binds | binds | – | – | binds | – | binding result (MCP-1 (CCL2)): binds; binding result (MCP-4 (CCL13)): binds; Relative Fluorescence Units (RFU) (RANTES (CCL5)): > 600 RFU |
